PMC8247850, “The Peculiar Case of the Hyper‐thermostable Pyrimidine Nucleoside Phosphorylase from Thermus thermophilus” (Chembiochem, 2021)

Columns and labels:
[1] = molecular target: T1, TtPyNP (Thermus thermophilus pyrimidine nucleoside phosphorylase) (Thermus thermophilus, UniProt Q5SHF9); settings: co-substrate uridine
T1 construct: gene TTHA1771
T1 sequence (Q5SHF9 1-423): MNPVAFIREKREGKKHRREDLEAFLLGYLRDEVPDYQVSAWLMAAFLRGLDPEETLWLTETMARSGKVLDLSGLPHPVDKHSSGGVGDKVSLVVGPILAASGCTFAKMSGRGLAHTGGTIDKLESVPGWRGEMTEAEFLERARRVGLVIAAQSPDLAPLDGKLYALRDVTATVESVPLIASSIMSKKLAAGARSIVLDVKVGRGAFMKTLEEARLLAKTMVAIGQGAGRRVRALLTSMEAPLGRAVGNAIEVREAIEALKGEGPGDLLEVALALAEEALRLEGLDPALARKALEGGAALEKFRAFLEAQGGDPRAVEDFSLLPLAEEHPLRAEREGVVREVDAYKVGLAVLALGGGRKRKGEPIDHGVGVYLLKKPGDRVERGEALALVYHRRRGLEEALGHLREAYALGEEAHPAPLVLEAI

[2] = substrate: O=c1ccn([C@@H]2O[C@H](CO)[C@@H](O)[C@H]2O)c(=O)[nH]1; assay: UV spectral unmixing of phosphorolysis initial rates; type: biochemical, Thermus thermophilus; settings: 80 °C, pH 7, saturating phosphate, Michaelis-Menten-like only up to 1-2 mM, inhibition at higher concentration

## O=P(O)(O)O [phosphate]
[1]
  K M: saturating phosphate concentrations for which typical Michaelis–Menten behavior was observed; Figure S4

B1: TtPyNP (Thermus thermophilus pyrimidine nucleoside phosphorylase) (Thermus thermophilus HB8) (protein)
chain: T1 sequence (Q5SHF9 1-423)
notes: tag not described in the main text
[2]
  Km: 5.92 ± 8.72 mM
  kcat: 624.89 ± 823.49 s⁻¹
